Data: patent US20250188153A1

How the values were obtained:
[1] = molecular target: hMPV A1 F (human metapneumovirus); assay: ELISA on coated recombinant protein, OD 405 nm
[2] = molecular target: hMPV A1 F monomer (human metapneumovirus); assay: ELISA on coated recombinant protein, OD 405 nm
[3] = molecular target: hMPV A1 F trimer (heated) (human metapneumovirus); assay: ELISA on coated recombinant protein, OD 405 nm
[4] = molecular target: hMPV A2 F (human metapneumovirus); assay: ELISA on coated recombinant protein, OD 405 nm
[5] = molecular target: hMPV B1 F (human metapneumovirus); assay: ELISA on coated recombinant protein, OD 405 nm
[6] = molecular target: hMPV B2 F GCN4 (human metapneumovirus); assay: ELISA on coated recombinant protein, OD 405 nm
[7] = molecular target: hMPV B2 F monomer (human metapneumovirus); assay: ELISA on coated recombinant protein, OD 405 nm
[8] = molecular target: hMPV B2 F protein (his-tagged, not trypsin treated) (human metapneumovirus); assay: ELISA on coated recombinant protein, OD 405 nm
[9] = molecular target: hMPV B2 F trimer (heated) (human metapneumovirus); assay: ELISA on coated recombinant protein, OD 405 nm
[10] = molecular target: hMPV B2 F protein (his-tagged, not trypsin treated) (human metapneumovirus); assay: BLI epitope binning on hMPV B2 F; first mAb MPV314, second mAb MPE8
[11] = molecular target: hMPV B2 F protein (his-tagged, not trypsin treated) (human metapneumovirus); assay: BLI epitope binning on hMPV B2 F; first mAb MPV414, second mAb MPE8
[12] = molecular target: hMPV B2 F protein (his-tagged, not trypsin treated) (human metapneumovirus); assay: BLI epitope binning on hMPV B2 F; first mAb MPV477, second mAb MPE8
[13] = molecular target: hMPV B2 F protein (his-tagged, not trypsin treated) (human metapneumovirus); assay: BLI epitope binning on hMPV B2 F; first mAb MPV481, second mAb MPE8
[14] = molecular target: hMPV B2 F protein (his-tagged, not trypsin treated) (human metapneumovirus); assay: BLI epitope binning on hMPV B2 F; first mAb MPV483, second mAb MPE8
[15] = molecular target: hMPV B2 F protein (his-tagged, not trypsin treated) (human metapneumovirus); assay: BLI epitope binning on hMPV B2 F; first mAb MPV487, second mAb MPE8
[16] = molecular target: hMPV B2 F protein (his-tagged, not trypsin treated) (human metapneumovirus); assay: BLI epitope binning on hMPV B2 F; first mAb MPV488, second mAb MPE8
[17] = molecular target: hMPV B2 F protein (his-tagged, not trypsin treated) (human metapneumovirus); assay: BLI epitope binning on hMPV B2 F; first mAb MPV503, second mAb MPE8
[18] = molecular target: DS-CavEs2-IPDS (human metapneumovirus); assay: cryo-EM structure

Row | Binder | EC50 [1] [µg/mL] | EC50 [2] [µg/mL] | EC50 [3] [µg/mL] | EC50 [4] [µg/mL] | EC50 [5] [µg/mL] | EC50 [6] [µg/mL] | EC50 [7] [µg/mL] | EC50 [8] [µg/mL] | EC50 [9] [µg/mL] | % binding of the second mAb after the first mAb [10] [%] | % binding of the second mAb after the first mAb [11] [%] | % binding of the second mAb after the first mAb [12] [%] | % binding of the second mAb after the first mAb [13] [%] | % binding of the second mAb after the first mAb [14] [%] | % binding of the second mAb after the first mAb [15] [%] | % binding of the second mAb after the first mAb [16] [%] | % binding of the second mAb after the first mAb [17] [%] | buried surface area on hMPV F (heavy chain) [18] [Å^2] | buried surface area on hMPV F (light chain) [18] [Å^2]
1 | MPV454 (antibody, V domains shown) VH: EVQLVESGGGLVKPGGSLRLSCSTSGFVFSSYAMHWVRQAPGKGLEHVSAISSTGDNTHYADSVKGRFTISRDNSRGRLYLQMTSVRPEDAALYYCVKDLYSGRFYYFLDDWGQGTRIIVSS VL: DIQVTQSPSSLSASVGDRVTISCRASQNISNYLNWFQQRPGKAPKLLIYVASTLQSGAPSRFSGSGSGTDFTLTITDLQPEDFATYYCQQSYNTPPITFGQGTRLEIK | 0.49 | 0.052 | 0.14 | 0.12 | 0.12 | 0.068 | 0.046 | 5.2 | 0.15 | – | – | – | – | – | – | – | – | – | –
2 | MPE8 (antibody, V domains shown) VH: EVQLVESGGGLVKPGGSLRLSCAASGFTFSSYSMNWVRQAPGKGLEWVSSISASSSYSDYADSAKGRFTISRDNAKTSLFLQMNSLRAEDTAIYFCARARATGYSSITPYFDIWGQGTLVTVSS VL: QSVVTQPPSVSGAPGQRVTISCTGSSSNIGAGYDVHWYQQLPGTAPKLLIYDNNNRPSGVPDRFSASKSGTSASLAITGLQAEDEADYYCQSYDRSLSGVFGTGTKVTVL | – | – | – | – | – | – | – | – | – | 4 | 2 | 1 | 72 | 71 | 4 | 42 | -1 | – | –
3 | MPV464 (antibody, V domains shown) VH: QVQLQESGPGLVKPSQTLSLTCTVSGGSVRGGGDYWSWIRRPPGKGLEWIGHIYNSGTTFYNPSLKSRVTISIDTSKNQFSLKLRSVTAADTAVYYCGRVGSRATGLPDWIDPWGQGTLVTVSS VL: SYELTQPPSVSVSPGQTATITCSGTNLGAKYSCWYQQKPGQSPVLVIFQDNKRASGIPARFSASTSGDTATLTISGTQVMDEADYFCQAWDSRTAVFGGGTTLTVL | 0.28 | 0.067 | 0.24 | 0.083 | 0.086 | 0.12 | 0.098 | 0.98 | 0.29 | – | – | – | – | – | – | – | – | – | –
4 | MPV486 (antibody, V domains shown) VH: EVQLVESGGHLVQSGGSLRLSCAASGFTFSNYILNWVRQAPGKGLEWISYITGGSSAIYYADSVKGRFTISRDDAKNSLYLQMNNLRAEDTAVYYCARSHGYDSSGYYYYFAMDVWGQGTTVTVSS VL: QSVLTQPPSASGTPGQRVTISCSGSNSNIESNTVNWYQQIPGTAPKLLIYSDNRRPSGVPDRFSGSKSGTSASLAISGLQSEDEADYYCAAWDDSLIGYVFGTGTKVTV | 0.053 | 0.088 | 0.22 | 0.043 | 0.1 | 0.1 | 0.11 | 0.23 | 0.24 | – | – | – | – | – | – | – | – | – | –
5 | MPV478 (antibody, V domains shown) VH: EVQLVQSGAEVKKPGASVKVSCNASGYTFTGYYIHWVRQAPGQGLEWMGWINPRSGGTNYAQKFQGRVTLTRDTSITTAYMDVTRLRPDDTAVYYCATTREGIVLMPRGRGDDALDTWGQGTTVIVSS VL: DIVMTQSPVSLTVSLGERATINCKSSQSVLSTSNNENYLAWYQQKPGQPPNLLIYWASTRESGVPDRFSGSGSGTDFTLTISSLQAEDVAVYYCQQYFATPITFGPGTKVDVK | 0.059 | 0.012 | 0.024 | 0.021 | 0.022 | 0.02 | 0.02 | 0.027 | 0.02 | – | – | – | – | – | – | – | – | – | –
6 | MPV477 (antibody, V domains shown) VH: EVQLVQSGAEVKKPGASVEVSCKTSGYTFTDYYLHWVRQAPGQGLEWMGWINPRSGGTKYGQKFQGRVTMTRDTSISTAYMDLRGLRSDDTAVYYCARAPLLTVYAVAHRSGENRFDPWGQGTVTVSS VL: QPPSLSGAPGQTVTISCTGSGSNIGAGYDVNWYQCLPGTAPKLLMFDNSNRPSGVPDRFSGSRSGASASLAITGLQAEDEADYYCQSYDSGLSGWVFGGGTKLTVL | 0.083 | 0.049 | 0.087 | 0.023 | 0.02 | 0.037 | 0.21 | 0.063 | 0.063 | – | – | – | – | – | – | – | – | – | –
7 | MPV467 Fab (Fab, V domains shown) VH: EVQLVESGGGVVRPGTSLRVSCAAFDFNFRDYGMHWVRQAPGKGLEWVAGIWYDGSNKDYADSVKGRFTISRDNSQNTLYLQMNSLRVEDTAVYYCARDPRTHREGALSHFDSWGQGTLVTVSS VL: PNELTQDPAVSVALGQTVRITCQGDSLRNYFAGWYQQKPGQAPLLVLYGENIRPSGIPDRFSGSSSGNTVSLTITGAQAEDEADYYCNSRDNSGNHWVFGGGTRLTVL | – | – | – | – | – | – | – | – | – | – | – | – | – | – | – | – | – | 567 | 322
8 | MPV483 (antibody, V domains shown) VH: EVQLVQSGAELKKPGSSVKVSCKASGDTFSNYAISWVRQAPGQGLEWMGGIIPIYNTANYAQKFQGRVTLTADESTSTAYMELSSLRSEDTAVYYCARDVRNNWSVLRGARYYYYGMDVWGQGTTVTVSS VL: DIVMTQTPFSLSASVGDRVTVTCRASQDISNSLAWFQQKPGKAPKSLIYAASSLQSGVPTRFSGGGSGTDFTLTISSLQPEDFATFYCLQYDSFPPTFGGGTKVEI | 0.12 | 0.16 | 0.27 | 0.07 | 0.12 | 0.14 | 0.13 | 0.22 | 0.33 | – | – | – | – | – | – | – | – | – | –
